Measurements as given in the supplement of paper PMC10126150.
± gives the standard deviation of the averaged measurements.

System: ATP
Test: switch fluorescence ratio, 500 uM ATP over buffer (Cy3 cluster intensity, sum of 5 cycles each) (fold (ratio)); higher = stronger signal-on switching upon ATP binding; sequences stand for … in TCGTCGGCAGCGTCAGATGTGTATAAGAGACAGTTTTTTTTTTTTTTTTTTTTTTTTT…TC
Conditions: aptamer strand: ATP DNA aptamer (quencher-CACCTGGGGGAGTATTGCGGAGGAAGG + anchor), 100 nM annealed; ATP concentration: 500 uM
Method in brief: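 Switching-strand clusters labelled with Cy3 on a modified Illumina MiSeq flow-cell were annealed to 100 nM quencher-labelled ATP aptamer, imaged in selection buffer, and re-imaged after 15 min with 500 uM ATP at 22 °C. This was done over five cycles with NaOH stripping and re-annealing in between. The fluorescence ratio is summed target-cycle over summed buffer-cycle Cy3 intensity per cluster, averaged per switch-domain sequence, excluding clusters outside 100-1000 RFU.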
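Note: ATP exposure 15 min at 22 °C before imaging.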

With GCATGATCAA the switch fluorescence ratio was 0.997 ± 0.031.
In the case of GCATGATGGG, the switch fluorescence ratio is reported as 0.986 ± 0.043.
In the case of GCATGCGCTG, the switch fluorescence ratio is reported as 0.982 ± 0.015.
Sequence GCATGCTGGT has a switch fluorescence ratio of 1.01 ± 0.024.
GCATGGCACC showed a switch fluorescence ratio of 1.01 ± 0.025.
Work on GCATGGGGAC yielded a switch fluorescence ratio of 1.05 ± 0.081.
For GCATGGTTGG, the switch fluorescence ratio was 0.976 ± 0.034.
GCATGGTTTT showed a switch fluorescence ratio of 0.975 ± 0.029.
GCATTAATG was tested, and the switch fluorescence ratio was 1.03 ± 0.021.
In the case of GCATTAGCTT, the switch fluorescence ratio is reported as 1.007 ± 0.01.
GCATTAGGGG was tested, and the switch fluorescence ratio was 1.01 ± 0.016.
GCATTAGGTA was tested, and the switch fluorescence ratio was 0.984 ± 0.024.
GCATTGATGT showed a switch fluorescence ratio of 1.02 ± 0.017.
Work on GCATTGGTTC yielded a switch fluorescence ratio of 1.02 ± 0.042.
With GCATTGTACG the switch fluorescence ratio was 0.991 ± 0.03.
Sequence GCATTGTGCC has a switch fluorescence ratio of 1.02 ± 0.022.
For GCATTTGAAG, the switch fluorescence ratio was 0.953 ± 0.05.
In the case of GCATTTGGGG, the switch fluorescence ratio is reported as 0.9686 ± 0.0032.
In the case of GCATTTGTAC, the switch fluorescence ratio is reported as 1.266 ± 0.0026.
In the case of GCATTTTTAT, the switch fluorescence ratio is reported as 1.02 ± 0.037.
Work on GCCAAGTTCG yielded a switch fluorescence ratio of 0.9787 ± 0.0072.
With GCCACATTCA the switch fluorescence ratio was 0.991 ± 0.017.
Work on GCCACGGCGA yielded a switch fluorescence ratio of 1.02 ± 0.021.
GCCAGATGCG showed a switch fluorescence ratio of 1.05 ± 0.064.
In the case of GCCAGATTAA, the switch fluorescence ratio is reported as 0.976 ± 0.014.
Work on GCCAGGCACT yielded a switch fluorescence ratio of 1.005 ± 0.0077.
Work on GCCAGGGGGA yielded a switch fluorescence ratio of 1.09 ± 0.12.
Work on GCCAGTAAGT yielded a switch fluorescence ratio of 0.994 ± 0.039.
GCCAGTAATA was tested, and the switch fluorescence ratio was 1.1 ± 0.034.
For GCCAGTTGTC, the switch fluorescence ratio was 0.998 ± 0.041.
For GCCATGGCGT, the switch fluorescence ratio was 1.02 ± 0.031.
Work on GCCATGTCGA yielded a switch fluorescence ratio of 0.9921 ± 0.0061.
GCCATTGGGG showed a switch fluorescence ratio of 0.9872 ± 0.0012.
With GCCCAACTGT the switch fluorescence ratio was 1 ± 0.036.
Work on GCCCACGCTG yielded a switch fluorescence ratio of 1.02 ± 0.011.
GCCCCATTTT gave a switch fluorescence ratio of 1.01 ± 0.024.
GCCCCTTAGG showed a switch fluorescence ratio of 1.1 ± 0.045.
For GCCCTATGTG, the switch fluorescence ratio was 1.25 ± 0.034.
Work on GCCCTGGGGC yielded a switch fluorescence ratio of 1.013 ± 0.0075.
For GCCCTGTATT, the switch fluorescence ratio was 1.015 ± 0.0048.
GCCCTTTTAA was tested, and the switch fluorescence ratio was 0.982 ± 0.016.
Sequence GCCGAACCTC has a switch fluorescence ratio of 1.28 ± 0.037.
Sequence GCCGAAGTCG has a switch fluorescence ratio of 1.02 ± 0.025.
GCCGACGGTG showed a switch fluorescence ratio of 1 ± 0.019.
GCCGCGGGGT was tested, and the switch fluorescence ratio was 1 ± 0.0017.
Work on GCCGCGTATA yielded a switch fluorescence ratio of 1.43 ± 0.058.
For GCCGCGTATC, the switch fluorescence ratio was 1.65 ± 0.12.
With GCCGCTGATG the switch fluorescence ratio was 0.982 ± 0.028.
GCCGCTGGTG showed a switch fluorescence ratio of 1.22 ± 0.077.
GCCGGAGGGA showed a switch fluorescence ratio of 0.989 ± 0.038.
Sequence GCCGGCACTG has a switch fluorescence ratio of 1.002 ± 0.0064.
For GCCGGCTTTG, the switch fluorescence ratio was 1.03 ± 0.026.
GCCGGGATGT showed a switch fluorescence ratio of 1.02 ± 0.052.
In the case of GCCGGGCAGC, the switch fluorescence ratio is reported as 0.98 ± 0.035.
Work on GCCGGGGAGG yielded a switch fluorescence ratio of 0.984 ± 0.038.
GCCGGGGCAG gave a switch fluorescence ratio of 1.01 ± 0.033.
For GCCGGGGGGG, the switch fluorescence ratio was 1.02 ± 0.02.
Work on GCCGGGGGTG yielded a switch fluorescence ratio of 1.04 ± 0.023.
GCCGGGTTAT gave a switch fluorescence ratio of 1.03 ± 0.079.
GCCGTAACGG was tested, and the switch fluorescence ratio was 0.982 ± 0.014.
Sequence GCCGTAATGG has a switch fluorescence ratio of 1.24 ± 0.089.
GCCGTAATTA showed a switch fluorescence ratio of 1.09 ± 0.017.
In the case of GCCGTCTGTG, the switch fluorescence ratio is reported as 0.9728 ± 0.0039.
Work on GCCGTGTGAT yielded a switch fluorescence ratio of 0.986 ± 0.0083.
GCCGTTGGGG gave a switch fluorescence ratio of 0.99 ± 0.031.
GCCGTTTGTG was tested, and the switch fluorescence ratio was 1.008 ± 0.0024.
GCCGTTTTTT gave a switch fluorescence ratio of 0.97 ± 0.04.
Work on GCCTAAATGC yielded a switch fluorescence ratio of 1.44 ± 0.28.
GCCTAATGGT showed a switch fluorescence ratio of 0.993 ± 0.016.
Work on GCCTATGAGG yielded a switch fluorescence ratio of 0.993 ± 0.038.
For GCCTATTGTT, the switch fluorescence ratio was 0.983 ± 0.02.
Work on GCCTCAGGGT yielded a switch fluorescence ratio of 1.08 ± 0.02.
With GCCTCCAGTT the switch fluorescence ratio was 1.15 ± 0.025.
GCCTCTGGTG gave a switch fluorescence ratio of 1.33 ± 0.035.
Sequence GCCTGAACTT has a switch fluorescence ratio of 1.03 ± 0.006.
Sequence GCCTGATACA has a switch fluorescence ratio of 1.02 ± 0.031.
Work on GCCTGCCCCG yielded a switch fluorescence ratio of 1.69 ± 0.026.
Work on GCCTGGACGA yielded a switch fluorescence ratio of 1.04 ± 0.018.
GCCTGGGAAG gave a switch fluorescence ratio of 0.976 ± 0.036.
Sequence GCCTGGGGAA has a switch fluorescence ratio of 0.9844 ± 0.0087.
For GCCTGGGTTC, the switch fluorescence ratio was 0.985 ± 0.02.
In the case of GCCTGGTTGT, the switch fluorescence ratio is reported as 1.02 ± 0.013.
Sequence GCCTTGGGAA has a switch fluorescence ratio of 1.02 ± 0.028.
With GCCTTGTGCA the switch fluorescence ratio was 0.995 ± 0.017.
Sequence GCCTTTCTGA has a switch fluorescence ratio of 0.9855 ± 0.0061.
In the case of GCCTTTGTAA, the switch fluorescence ratio is reported as 1.09 ± 0.056.
GCCTTTTGTT gave a switch fluorescence ratio of 0.995 ± 0.027.
GCGAAAAAGA was tested, and the switch fluorescence ratio was 0.98 ± 0.031.
GCGAAAAATA gave a switch fluorescence ratio of 1.0196 ± 0.00067.
For GCGAAAGGGA, the switch fluorescence ratio was 1.02 ± 0.036.
GCGAACGGGG was tested, and the switch fluorescence ratio was 1.01 ± 0.049.
Sequence GCGAAGGTCA has a switch fluorescence ratio of 1.01 ± 0.012.
With GCGACACACT the switch fluorescence ratio was 1.47 ± 0.058.
In the case of GCGACATAGG, the switch fluorescence ratio is reported as 0.964 ± 0.042.
Work on GCGACATGAT yielded a switch fluorescence ratio of 1.025 ± 0.0011.
With GCGACTTGGG the switch fluorescence ratio was 1.04 ± 0.054.
GCGAGAGCTA showed a switch fluorescence ratio of 0.9602 ± 0.0021.
GCGAGGGGCA showed a switch fluorescence ratio of 0.992 ± 0.025.
Sequence GCGAGGGTCT has a switch fluorescence ratio of 1.01 ± 0.027.
For GCGAGTACCG, the switch fluorescence ratio was 1.02 ± 0.032.
Work on GCGAGTTCTA yielded a switch fluorescence ratio of 0.963 ± 0.025.
Sequence GCGATAAAGC has a switch fluorescence ratio of 1.03 ± 0.041.
GCGATGAATC gave a switch fluorescence ratio of 1.04 ± 0.04.
Sequence GCGATGCCTC has a switch fluorescence ratio of 1.09 ± 0.043.
For GCGATGTATA, the switch fluorescence ratio was 1.02 ± 0.013.
GCGATGTTTG gave a switch fluorescence ratio of 0.998 ± 0.023.
GCGATTAAGG showed a switch fluorescence ratio of 0.9904 ± 0.0013.
Sequence GCGATTAGAG has a switch fluorescence ratio of 1 ± 0.02.
GCGATTATCT showed a switch fluorescence ratio of 1.002 ± 0.0064.
For GCGATTCGGG, the switch fluorescence ratio was 0.978 ± 0.01.
For GCGATTGAGC, the switch fluorescence ratio was 0.9808 ± 0.004.
For GCGATTTTTT, the switch fluorescence ratio was 0.974 ± 0.021.
Sequence GCGCAGTACG has a switch fluorescence ratio of 4.91 ± 0.71.
GCGCATTGTT gave a switch fluorescence ratio of 1.026 ± 0.0094.
With GCGCCAGGCG the switch fluorescence ratio was 0.998 ± 0.025.
GCGCCCAACT gave a switch fluorescence ratio of 1.03 ± 0.035.
With GCGCCCGTGG the switch fluorescence ratio was 1.01 ± 0.034.
GCGCCCTGTG was tested, and the switch fluorescence ratio was 1.122 ± 0.0062.
For GCGCGAAGGA, the switch fluorescence ratio was 1.03 ± 0.053.
Work on GCGCGCGTTC yielded a switch fluorescence ratio of 1.03 ± 0.045.
GCGCGGAGGA was tested, and the switch fluorescence ratio was 1.03 ± 0.029.
In the case of GCGCGGGGGA, the switch fluorescence ratio is reported as 1.02 ± 0.025.
GCGCGGTGGC was tested, and the switch fluorescence ratio was 1.09 ± 0.015.
In the case of GCGCGTTAGC, the switch fluorescence ratio is reported as 1.007 ± 0.0014.
GCGCTGGGGG showed a switch fluorescence ratio of 1.07 ± 0.081.
In the case of GCGCTTGCTC, the switch fluorescence ratio is reported as 1.13 ± 0.013.
GCGCTTTTGC showed a switch fluorescence ratio of 1.04 ± 0.061.
In the case of GCGGAATATG, the switch fluorescence ratio is reported as 1.13 ± 0.018.
Work on GCGGAATGCT yielded a switch fluorescence ratio of 1.2 ± 0.32.
Sequence GCGGACCGGG has a switch fluorescence ratio of 1.04 ± 0.031.
Sequence GCGGAGGGGG has a switch fluorescence ratio of 1 ± 0.035.
In the case of GCGGAGGGGT, the switch fluorescence ratio is reported as 1.02 ± 0.049.
For GCGGATAAGC, the switch fluorescence ratio was 1.01 ± 0.039.
In the case of GCGGATGAGC, the switch fluorescence ratio is reported as 0.995 ± 0.013.
In the case of GCGGATGGCA, the switch fluorescence ratio is reported as 1 ± 0.038.
Work on GCGGCACGGG yielded a switch fluorescence ratio of 1.02 ± 0.054.
GCGGCGGAAG showed a switch fluorescence ratio of 1.025 ± 0.0042.
GCGGGAACGG gave a switch fluorescence ratio of 0.992 ± 0.017.
Sequence GCGGGAAGGG has a switch fluorescence ratio of 0.995 ± 0.033.
With GCGGGAGTTT the switch fluorescence ratio was 0.9667 ± 0.0015.
In the case of GCGGGATTGG, the switch fluorescence ratio is reported as 1.001 ± 0.0077.
GCGGGCAAGT gave a switch fluorescence ratio of 0.9903 ± 0.00062.
GCGGGCACCA gave a switch fluorescence ratio of 0.995 ± 0.024.
GCGGGCGCCC was tested, and the switch fluorescence ratio was 1.011 ± 0.006.
GCGGGCGTTC showed a switch fluorescence ratio of 1.0164 ± 0.0005.
Sequence GCGGGCTAAC has a switch fluorescence ratio of 1.17 ± 0.24.
With GCGGGGAGCG the switch fluorescence ratio was 1.001 ± 0.0031.
Sequence GCGGGGCCAT has a switch fluorescence ratio of 1.02 ± 0.028.
With GCGGGGCCCA the switch fluorescence ratio was 1.01 ± 0.013.
In the case of GCGGGGCCTG, the switch fluorescence ratio is reported as 0.993 ± 0.051.
Work on GCGGGGCTCA yielded a switch fluorescence ratio of 1.12 ± 0.11.
Work on GCGGGGGAAC yielded a switch fluorescence ratio of 1.018 ± 0.0055.
GCGGGGGACC was tested, and the switch fluorescence ratio was 1.011 ± 0.0051.
